Data taken from patent publication US20040073001A1 (Kyowa Kirin, published 2004).

Assays:
[1] = molecular target: T1, GAL4 BD fusion of the C-terminal half of the β-catenin arm (residues 391 to 664 of mouse β-catenin, armadillo … (yeast; mouse, UniProt P04386 1-147; Q02248 391-664); experiment: yeast two-hybrid, β-galactosidase activity
T1 construct: Two-hybrid bait; also called C-terminal half of the β-catenin arm (armadillo repeats 7-12)
Description: (§1) The respective bait plasmids were cotransfected with the B9L cDNA fragment-expressing clone obtained by the two-hybrid system in Example 1 into yeast HF7C strain, and the binding between the B9L protein and the respective β-catenin partial fragments were examined by the existence of β-galactosidase activity in the transformants. […] Thus, it was considered that the B9L protein binds to the N-terminal region of β-catenin arm (armadillo repeats 1-6).
(§2) In order to further examine which region of the B9L protein binds to the β-catenin arm, two-hybrid system was performed as follows. […] Each plasmid was cotransfected with the β-catenin arm bait plasmid prepared in Example 1 into yeast HF7C strain, and the binding of each B9L protein partial fragment and β-catenin arm was examined based on the presence or absence of β-galactosidase activity in the transformants. […] Thus, the B9L protein was indicated to bind to the β-catenin arm at the region of residues 292-439 in the amino acid sequence represented by SEQ ID NO: 2.

[2] = molecular target: T2, GAL4 BD fusion of almost the entire β-catenin arm (residues 141 to 664 of mouse β-catenin) (yeast; mouse, UniProt P04386 1-147; Q02248 141-664); experiment: yeast two-hybrid, β-galactosidase activity
T2 construct: Two-hybrid bait; also called almost entire region
Description: as §1, §2

[3] = molecular target: T3, GAL4 BD fusion of the N-terminal half of the β-catenin arm (residues 141 to 390 of mouse β-catenin, armadillo … (yeast; mouse, UniProt P04386 1-147; Q02248 141-390); experiment: yeast two-hybrid, β-galactosidase activity
T3 construct: Two-hybrid bait; also called N-terminal half (armadillo repeats 1-6) of the β-catenin arm
Description: as §1, §2

[4] = molecular target: T4, GAL4-β-catenin fusion protein (GAL4 BD fused with mouse β-catenin armadillo domain, residues 128 to 683) (yeast; mouse, UniProt P04386 1-147; Q02248 128-683); experiment: yeast two-hybrid screening, HIS3 and β-galactosidase reporters
T4 construct: Bait of the yeast two-hybrid system; also called mβ-catenin arm; β-catenin arm bait plasmid
Description: Screening was carried out with […] mouse fetal (Swiss Webster/NIH mouse; 17-day embryo) cDNA library, which is a library to be used for the two-hybrid system and provided by Clontech. This cDNA library contains vector pGAD10 (Clontech) with cDNA insert and, as a selection marker, LEU2 gene involved in leucine biosynthesis in yeast, and can express fusion proteins of GAL4 AD and cDNA-encoding proteins through ADH1 promoter. Specific method for the screening was conducted according to the manual attached to the library from Clontech as follows.
Specifically, both mouse fetal cDNA library for the two-hybrid system and plasmid GAL4-β-catenin prepared in (1) were introduced in yeast Saccharomyces cerevisiae HF7C strain (Clontech). HF7C strain is a yeast strain that is tryptophan-, leucine-, and histidine-auxotrophic. The strain has HIS3 gene on the chromosome wherein the gene is involved in histidine biosynthesis and has been ligated downstream of GAL1 promoter to which GAL4 BD can bind, as well as E. coli-derived β-galactosidase gene lacZ ligated downstream of a nucleotide sequence to which GAL4 BD can bind as reporter genes (Gene 212: 197 (1998)). A transformant containing both plasmid GAL4-β-catenin and cDNA clone of a protein that binds to mβ-catenin arm and expresses the respective fusion proteins, is non-auxotrophic for histidine and is positive in β-galactosidase activity. […]

binding result [1]: no binding
binding result [2]: binds
binding result [3]: binds
binding result [4]: binds
B1: GAL4 AD fusion of the B9L cDNA fragment clone obtained by the two-hybrid system (B9L protein residues 245 to 564, SEQ ID NO: 4) (other, not shown: large carriers)
chain: LANTAAEAVLQGRAESILAYHQQNVPRAKLDQAPKVPPTPEPLPLNTPSAGTPQSQPPPLPPPPPAPGSAPPALPPEGPPEDTSQDLAPNSVGAASTGGGTGGTHPNTPTAATANNPLPPGGDPGSAPGSALLGEATPTGNGQRNLVGSEGLSKEQLEHRERSLQTLRDIERLLLRSGETEPFLKGPPGGAGEGGPPAQAPSAAQPPPSAPPGGLKKYEEPLQSMISQTQSLGGPPLEHEVPGHPQGGDMGQQMNMMMQRLGQDSLTPEQVAWRKLQEEYYEEKRRKEEQIGLHGGRPLQDMVGMGGMMGRGPPPPYHSK
notes: Expressed in yeast HF7C as prey of the two-hybrid system; also called B9L cDNA fragment-expressing clone; bc19 like protein fragment
